Test results from US20230181671A1 (published 2023).

B1: Antibody 15, monomeric Fab (Fab, V domains shown)
VH: QVQLVQSGSELKKPGASVKVSCKASGYTFTSSGISWVRQAPGQGLEWMGEILPRSGYTNYNQGFTGRFVFSADKSVSTAYLQISSLKAEDTAVYYCARDFKGGRYAMDYWGQGTTVTVSS
VL: SIQMTQSPSSLSASVGDRVTITCQASQSVRYNVAWYQQKPGKAPKLLIYYASNRYEGVPSRFSGSGSGTDFTFTISSLQPEDIATYFCQHHYSSPLTFGGGTKLEIK
B2: Antibody 16, monomeric Fab (Fab, V domains shown)
VH: QVQLVQSGSELKKPGASVKVSCKASGYTFTSSGISWVRQAPGQGLEWMGEILPRSGYTNYNQGFTGRFVFSADKSVSTAYLQISSLKAEDTAVYYCARDFKGGRYAMDYWGQGTTVTVSS
VL: SIQMTQSPSSLSASVGDRVTITCQASQSVRYNVAWYQQKPGKAPKLLIYYASNRYEGVPSRFSGSGSGTDFTFTISSLQPEDIATYFCQHHYSSPLTFGGGTKLEIK
notes: Same VH and VL as Antibody 15; The two antibodies differ only in the silencing mutations of the heavy chain constant region
B3: Antibody 12, monomeric Fab (Fab, V domains shown)
VH: QVQLVQSGSELKKPGASVKVSCKASGYTFTSSGISWVRQAPGQGLEWMGEILPRSGYTNYNQGFTGRFVFSADKSVSTAYLQISSLKAEDTAVYYCARDFKGGRYAMDYWGQGTTVTVSS
VL: SIQMTQSPSSLSASVGDRVTITCQASQSVRYNVAWYQQKPGKAPKLLIYYASNRYDGVPSRFSGSGSGTDFTFTISSLQPEDIATYFCQHHYSSPLTFGGGTKLEIK
B4: Antibody 18, monomeric Fab (Fab, V domains shown)
VH: QVQLVQSGSELKKPGASVKVSCKASGYTFTSSGISWVRQAPGQGLEWMGEIQPRSGYTNYNQGFTGRFVFSADKSVSTAYLQISSLKAEDTAVYYCARDKGPARYTMDYWGQGTTVTVSS
VL: SIQMTQSPSSLSASVGDRVTITCQASQSIRYNVAWYQQKPGKAPKLLIYYASNRYEGVPSRFSGSGSGTDFTFTISSLQPEDIATYYCQHHYSSPLTFGGGTKLEIK
B5: Antibody 13, monomeric Fab (Fab, V domains shown)
VH: QVQLVQSGSELKKPGASVKVSCKASGYTFTSSGISWVRQAPGQGLEWMGEILPRSGYTNYNQGFTGRFVFSADKSVSTAYLQISSLKAEDTAVYYCARDKGPSRYTMDYWGQGTTVTVSS
VL: SIQMTQSPSSLSASVGDRVTITCQASQSVRYNVAWYQQKPGKAPKLLIYYASNRYDGVPSRFSGSGSGTDFTFTISSLQPEDIATYFCQHHYSSPLTFGGGTKLEIK
B6: Antibody 17, monomeric Fab (Fab, V domains shown)
VH: QVQLVQSGSELKKPGASVKVSCKASGYTFTSSGISWVRQAPGQGLEWMGEIQPRSGYTNYNQGFTGRFVFSADKSVSTAYLQISSLKAEDTAVYYCARDKGPARYTMDYWGQGTTVTVSS
VL: SIQMTQSPSSLSASVGDRVTITCQASQSVRYNVAWYQQKPGKAPKLLIYYASNRYEGVPSRFSGSGSGTDFTFTISSLQPEDIATYFCQHHYSSPLTFGGGTKLEIK
B7: anti-LPAR1 mAb with the VH of SEQ ID NO: 369 and VL of SEQ ID NO: 39 (antibody, IgG1, V domains shown)
VH: QVQLVQSGSELKKPGASVKVSCKASGYTFTSSGISWVRQAPGQGLEWMGEILPRSGYTNYNQGFTGRFVFSADKSVSTAYLQISSLKAEDTAVYYCARDFASARYAMDYWGQGTTVTVSS
VL: SIQMTQSPSSLSASVGDRVTITCQASQSVRYNVAWYQQKPGKAPKLLIYYASNRYTGVPSRFSGSGSGTDFTFTISSLQPEDIATYFCQHHYSSPLTFGGGTKLEIK
notes: also called huVH4_Q61A97A99G104 (VH); 11 VL
B8: 63D8 (antibody, IgG1, V domains shown)
VH: EVKLLESGGGLVQPGGSLKLSCTASGFDFSRYWMSWVRQAPGKGLEWIGEINPSRSAINYSPSLKDKFIISRDNAKNTLYLQMSKVRSEDTALYYCARQGQRLRYGMDYWGQGTSVTVSS
VL: DIVMTQSPNFMSTSVGDRVSVTCRASQDVRTAVAWYQQKPGRSPKLLIYWTSTRHTGVPDRFTGSGSGTDYTLTISSVQAADLALYYCQQHYGTPLTFGAGTNLELK
notes: First found as a mouse hybridoma antibody
B9: Antibody 4 (antibody, IgG1, V domains shown)
VH: QVQLQQSGAELARPGASVKLSCKASGYTFTSSGISWVKQRTGQGLEWIGEIYPRSGYTNYNEKFKGKASLTADKSSRTAYMELRSLTSEDSAVYFCARDYDNSRYALDYWGQGTSVTVSS
VL: SIVMTQTPKFLPVSAGDRVTMTCKASQSVGYNVAWYQQKTGQSPKLLIYYASNRYTGVPDRFTGSGSGTDFTFTISSVQVEDLAVYFCQHHYSSPLTFGAGTKLELK

Molecular target: T1, LPAR1 (on CHO cells; species not stated) (UniProt Q92633 1-364)
T1 construct: whole, on cells; also called CHO-LPAR1 cells
T1 sequence (Q92633 whole entry): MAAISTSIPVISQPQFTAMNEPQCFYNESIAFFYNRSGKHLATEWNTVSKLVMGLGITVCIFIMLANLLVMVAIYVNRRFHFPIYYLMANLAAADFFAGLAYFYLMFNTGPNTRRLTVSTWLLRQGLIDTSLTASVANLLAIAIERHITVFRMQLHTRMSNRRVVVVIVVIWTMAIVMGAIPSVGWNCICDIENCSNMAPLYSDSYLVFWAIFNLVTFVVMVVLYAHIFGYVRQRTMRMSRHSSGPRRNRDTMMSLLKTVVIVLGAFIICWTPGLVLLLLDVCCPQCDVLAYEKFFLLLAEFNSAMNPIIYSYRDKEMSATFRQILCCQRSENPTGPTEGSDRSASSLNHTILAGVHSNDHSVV
Assay: KinExA (method 1.14), monomeric Fab as constant binding partner, CHO-LPAR1 cells titrated
Experimental: The monomeric affinity constant KD for the interaction of antibodies with LPAR1 was determined using monomeric Fabs derived from the antibodies, using the KinExA method. In this method, the concentration of unbound antibody is measured against a range of antigen concentrations. Because KD=([Free antigen][Free antibody])/[Antigen-antibody complex], the value of KD can be deduced from these measurements. CHO-LPAR1 cells, the antigen source, are titrated in a background of constant binding partner (CBP, e.g. a Fab to be tested). Samples are gently rocked until equilibrium is reached. After incubation, cells are centrifuged and the free CBP is removed without disturbing the cell pellet. Beads coated with Anti-Species are used to capture a portion of free CBP. Captured CBP is detected with a fluorescently labelled Anti-CBP using the KinExA. The fluorescent signal is converted to a voltage signal that is directly proportional to the concentration of free CBP in the equilibrated sample.

**Q.** How did the Kd turn out when B1 was run?
**A.** The Kd was 0.824 nM.

**Q.** With B2 as the binder, how does the Kd read?
**A.** Its Kd is 0.824 nM.

**Q.** How did the Kd turn out when B3 was run?
**A.** The Kd was 1.28 nM.

**Q.** With B4 as the binder, how does the Kd read?
**A.** Its Kd is 1.39 nM.

**Q.** How did the Kd turn out when B5 was run?
**A.** Its Kd is 0.993 nM.

**Q.** Which Kd does the source give for B6 here?
**A.** The Kd was 1 nM.

Molecular target: T2, human LPAR1 (full length LPAR1, SEQ ID NO: 62) (human, UniProt Q92633 1-364)
T2 construct: Also used here for hLPAR1 in HEK293 cells (method 1.15); also called Lysophosphatidic Acid Receptor 1; LPA1
T2 sequence (Q92633 whole entry): as above
Assay: transient-transfection CIFAT (protocol 1.11) on CHO-K1 cells expressing human LPAR1 and alanine variants
Experimental: (§1) CHO-K1 cells were seeded in clear 96-well plates at 20,000 cells per 200 μL full growth medium and incubated for 24 hours at 37° C. The following day, in a sterile tube, 0.0309 uL/well PEI (Generon, MW 160,000) was diluted into 10 uL/well transfection medium (DMEM supplemented with 2 mM L-glutamine and Penicillin-Streptomycin). The diluted PEI was added to 100 ng/well DNA encoding the target protein (human LPAR1 (SEQ ID NO: 62) unless otherwise stated), before vortexing immediately and incubating the mixture for 10 minutes at room temperature. 200 μL/well full growth medium was added to the PEI-DNA mixture, then medium in wells was taken off and 200 ul full growth medium/PEI/DNA mixture was added in the wells of the adherent cell plate. […] After washing and cell fixation with 4% PFA, the binding of the antibodies was detected using a goat anti-human Alexa Fluor 488 detection antibody (Invitrogen), incubated for 1 hour at room temperature. Fluorescence at 488 nm was measured using a BMG LABTECH ClarioStar plate reader and microscopy images were taken at 10× magnification.
Based on the epitope analysis presented in FIGS. 3 and 4, constructs were designed to test the important residues/interaction regions predicted in silico. […] CHO-K1 cells were transiently transfected with these plasm ids and the binding of an anti-LPAR1 mAb assessed to each of these receptor variants using protocol 1.11. […]

**Q.** Does B7 bind?
**A.** Result: binds

Molecular target: T2, human LPAR1 (full length LPAR1, SEQ ID …)
Assay: transient-transfection CIFAT (method 1.11), fixed/permeabilised and live cells expressing LPAR1, microscopy
Experimental: as §1, with “plate. The plate was incubated for 24 hours at 37° C. The next day, the medium was discarded and replaced with 200 μL full growth medium. The plate was incubated for 24 hours at 37° C.” for “plate.”, “magnification. […]” for “magnification.”

**Q.** Does B8 bind?
**A.** Result: binds

**Q.** Does B9 bind?
**A.** Result: binds
